Molecular target: T1, recombinant human PRX1 (Sigma-Aldrich) (human, UniProt Q06830 1-199)
T1 construct: recombinant human peroxiredoxin-1, bought; construct not described; also called recombinant PRX1; source: bought: Sigma-Aldrich
T1 sequence (looked up): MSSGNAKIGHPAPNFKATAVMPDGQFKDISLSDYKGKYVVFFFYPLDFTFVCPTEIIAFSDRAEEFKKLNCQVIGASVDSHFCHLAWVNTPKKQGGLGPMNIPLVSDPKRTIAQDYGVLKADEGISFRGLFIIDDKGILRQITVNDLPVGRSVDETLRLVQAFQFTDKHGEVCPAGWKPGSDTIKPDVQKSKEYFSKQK
Assay: BLI; BLItz; biotinylated fortilin immobilized on streptavidin biosensors (1 μg/mL, 25 mM Tris, 150 mM NaCl, 0.1% Tween-20), then PBS; recombinant PRX1 in solution, 180 s association, 300 s dissociation in PBS; three independent experiments
Conditions: both partners purified

B1: recombinant human fortilin tagged with the Strep-tag II (natural protein, UniProt P13693 1-172, looked up)
chain: MIIYRDLISHDEMFSDIYKIREIADGLCLEVEGKMVSRTEGNIDDSLIGGNASAEGPEGEGTESTVITGVDIVMNHHLQETSFTKEAYKKYIKDYMKSIKGKLEEQRPERVKPFMTGAAEQIKHILANFKNYQFFIGENMNPDGMVALLDYREDGVTPYMIFFKDGLEMEKC
modifications: biotin (biotinylated for the biolayer interferometry)
notes: human fortilin (TCTP) cDNA in the pESG-IBA5 vector; Biotinylated only for the biolayer interferometry; used without biotin in the activity and phosphorylation assays; also called recombinant fortilin; wild-type fortilin; source: 293T cells stably expressing it, purified (Strep-Tactin-Superflow resin)
  Kd: 125 nM

— publication PMC4698670, “Fortilin potentiates the peroxidase activity of Peroxiredoxin-1 and protects against alcohol-induced liver damage in mice” (Scientific Reports, 2016)
